The results in this text go back to the supplement of paper PMC5998384.

Series [1] concerns HeLa Kyoto. Description: solubility in G1/S (NP-40 vs SDS abundance) (log2 ratio); higher = more soluble. The note with it: cell cycle stage: G1/S.
For series [2], the system named is HeLa Kyoto. Description: melting temperature (median over replicates), in situ; higher = more thermally stable.
For series [3], the system named is HeLa Kyoto. Description: solubility change mitosis vs G1/S (difference of NP-40 vs SDS log2 ratios) (log2 ratio difference); higher = more soluble in mitosis.
In series [4] the test system is HeLa Kyoto. Description: thermal stability score vs G1/S (z-score of summed log2 fold changes over temperatures); higher = more thermally stable than in G1/S.
[5] abbreviates: cell cycle stage: early G1 (4.5 h after nocodazole release).
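Wherever melting temperature (median over replicates), in situ is given: HeLa Kyoto cells synchronized by double thymidine or nocodazole block, proteins quantified by TMT10plex mass spectrometry, three independent biological replicates.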
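Wherever solubility change mitosis vs G1/S (difference of NP-40 vs SDS log2 ratios) is given: synchronized HeLa Kyoto cells (double thymidine block for G1/S, nocodazole release for mitosis), protein amounts in NP-40 versus SDS lysates quantified by mass spectrometry, three biological replicates.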
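Wherever solubility in G1/S (NP-40 vs SDS abundance) is given: HeLa Kyoto cells arrested at G1/S by double thymidine block, proteins quantified by TMT10plex mass spectrometry in mild NP-40 versus SDS extracts, three biological replicates.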
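Wherever thermal stability score vs G1/S (z-score of summed log2 fold changes over temperatures) is given: synchronized HeLa Kyoto cells, proteins quantified by TMT10plex mass spectrometry, three biological replicates, mitosis taken 0.5 h after nocodazole release, G1/S directly after double thymidine block.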

As for “MGGRVFLAFCVWLTLPGAETQDSRGCARWCPQNSSCVNATACRCNPGFSSFSEIITTPTETCDDINECATPSKVSCGKFSDCWNTEGSYDCVCSPGYEPVSGAKTFKNESENTCQDVDECQQNPRLCKSYGTCVNTLGSYTCQCLPGFKFIPEDPKVCTDVNECTSGQNPCHSSTHCLNNVGSYQCRCRPGWQPIPGSPNGPNNTVCEDVDECSSGQHQCDSSTVCFNTVGSYSCRCRPGWKPRHGIPNNQKDTVCEDMTFSTWTPPPGVHSQTLSRFFDKVQDLGRDSKTSSAEVTIQNVIKLVDELMEAPGDVEALAPPVRHLIATQLLSNLEDIMRILAKSLPKGPFTYISPSNTELTLMIQERGDKNVTMGQSSARMKLNWAVAAGAEDPGPAVAGILSIQNMTTLLANASLNLHSKKQAELEEIYESSIRGVQLRRLSAVNSIFLSHNNTKELNSPILFAFSHLESSDGEAGRDPPAKDVMPGPRQELLCAFWKSDSDRGGHWATEGCQVLGSKNGSTTCQCSHLSSFAILMAHYDVEDWKLTLITRVGLALSLFCLLLCILTFLLVRPIQGSRTTIHLHLCICLFVGSTIFLAGIENEGGQVGLRCRLVAGLLHYCFLAAFCWMSLEGLELYFLVVRVFQGQGLSTRWLCLIGYGVPLLIVGVSAAIYSKGYGRPRYCWLDFEQGFLWSFLGPVTFIILCNAVIFVTTVWKLTQKFSEINPDMKKLKKARALTITAIAQLFLLGCTWVFGLFIFDDRSLVLTYVFTILNCLQGAFLYLLHCLLNKKVREEYRKWACLVAGGSKYSEFTSTTSGTGHNQTRALRASESGI [CD97]”, in the series on HeLa Kyoto [1], the “solubility in G1/S (log2)” value stood at 0.257. Further, the melting temperature stood at 59.6 °C in the series on HeLa Kyoto [2] (cell cycle stage: G1/S) and 58.4 °C in the series with HeLa Kyoto [2] (cell cycle stage: mitosis). The “solubility change mitosis (log2)” value in the series on HeLa Kyoto [3] is -0.171. The thermal stability score with HeLa Kyoto [4] (setting [5]) was 0.176; in the series on HeLa Kyoto [4] (cell cycle stage: mitosis), -0.537.

As to “MASIWVGHRGTVRDYPDFSPSVDAEAIQKAIRGIGTDEKMLISILTERSNAQRQLIVKEYQAAYGKELKDDLKGDLSGHFEHLMVALVTPPAVFDAKQLKKSMKGAGTNEDALIEILTTRTSRQMKDISQAYYTVYKKSLGDDISSETSGDFRKALLTLADGRRDESLKVDEHLAKQDAQILYKAGENRWGTDEDKFTEILCLRSFPQLKLTFDEYRNISQKDIVDSIKGELSGHFEDLLLAIVNCVRNTPAFLAERLHRALKGIGTDEFTLNRIMVSRSEIDLLDIRTEFKKHYGYSLYSAIKSDTSGDYEITLLKICGGDD [ANXA3]”, the “solubility in G1/S (log2)” value in the series on HeLa Kyoto [1] turned out to be 0.2. The melting temperature amounted to 52.3 °C in the series with HeLa Kyoto [2] (cell cycle stage: G1/S) and 52.2 °C with HeLa Kyoto [2] (cell cycle stage: mitosis). For the same sequence, in the series with HeLa Kyoto [3], the “solubility change mitosis (log2)” value is -0.0404. The figures for the thermal stability score with HeLa Kyoto [4] (setting [5]) and with HeLa Kyoto [4] (cell cycle stage: mitosis) were -0.635 and -1.21, respectively.

Consider “MADGEEPEKKRRRIEELLAEKMAVDGGCGDTGDWEGRWNHVKKFLERSGPFTHPDFEPSTESLQFLLDTCKVLVIGAGGLGCELLKNLALSGFRQIHVIDMDTIDVSNLNRQFLFRPKDIGRPKAEVAAEFLNDRVPNCNVVPHFNKIQDFNDTFYRQFHIIVCGLDSIIARRWINGMLISLLNYEDGVLDPSSIVPLIDGGTEGFKGNARVILPGMTACIECTLELYPPQVNFPMCTIASMPRLPEHCIEYVRMLQWPKEQPFGEGVPLDGDDPEHIQWIFQKSLERASQYNIRGVTYRLTQGVVKRIIPAVASTNAVIAAVCATEVFKIATSAYIPLNNYLVFNDVDGLYTYTFEAERKENCPACSQLPQNIQFSPSAKLQEVLDYLTNSASLQMKSPAITATLEGKNRTLYLQSVTSIEERTRPNLSKTLKELGLVDGQELAVADVTTPQTVLFKLHFTS [UBA3]”, for which, in the series on HeLa Kyoto [1], the “solubility in G1/S (log2)” value is 0.115. Moreover, the melting temperature with HeLa Kyoto [2] (cell cycle stage: G1/S) was found to be 51.8 °C; in the series on HeLa Kyoto [2] (cell cycle stage: mitosis) it was 51.5 °C. The “solubility change mitosis (log2)” value in the series on HeLa Kyoto [3] was -0.178. Moreover, the thermal stability score in the series with HeLa Kyoto [4] (setting [5]) stood at 1.23; in the series with HeLa Kyoto [4] (cell cycle stage: mitosis), 1.76.

For “MAATALLEAGLARVLFYPTLLYTLFRGKVPGRAHRDWYHRIDPTVLLGALPLRSLTRQLVQDENVRGVITMNEEYETRFLCNSSQEWKRLGVEQLRLSTVDMTGIPTLDNLQKGVQFALKYQSLGQCVYVHCKAGRSRSATMVAAYLIQVHKWSPEEAVRAIAKIRSYIHIRPGQLDVLKEFHKQITARATKDGTFVISKT [PTPMT1]”, the “solubility in G1/S (log2)” value in the series on HeLa Kyoto [1] was -0.268. The melting temperature turned out to be 51.8 °C in the series with HeLa Kyoto [2] (cell cycle stage: G1/S) and 51.2 °C with HeLa Kyoto [2] (cell cycle stage: mitosis). Moreover, in the series on HeLa Kyoto [3], the “solubility change mitosis (log2)” value is -0.0676. Besides, the thermal stability score with HeLa Kyoto [4] (setting [5]) was -0.395; in the series on HeLa Kyoto [4] (cell cycle stage: mitosis), -0.764.

Turning to “MADGVDHIDIYADVGEEFNQEAEYGGHDQIDLYDDVISPSANNGDAPEDRDYMDTLPPTVGDDVGKGAAPNVVYTYTGKRIALYIGNLTWWTTDEDLTEAVHSLGVNDILEIKFFENRANGQSKGFALVGVGSEASSKKLMDLLPKRELHGQNPVVTPCNKQFLSQFEMQSRKTTQSGQMSGEGKAGPPGGSSRAAFPQGGRGRGRFPGAVPGGDRFPGPAGPGGPPPPFPAGQTPPRPPLGPPGPPGPPGPPPPGQVLPPPLAGPPNRGDRPPPPVLFPGQPFGQPPLGPLPPGPPPPVPGYGPPPGPPPPQQGPPPPPGPFPPRPPGPLGPPLTLAPPPHLPGPPPGAPPPAPHVNPAFFPPPTNSGMPTSDSRGPPPTDPYGRPPPYDRGDYGPPGREMDTARTPLSEAEFEEIMNRNRAISSSAISRAVSDASAGDYGSAIETLVTAISLIKQSKVSADDRCKVLISSLQDCLHGIESKSYGSGSRRERSRERDHSRSREKSRRHKSRSRDRHDDYYRERSRERERHRDRDRDRDRERDREREYRHR [CPSF6]”, the “solubility in G1/S (log2)” value in the series on HeLa Kyoto [1] is -0.195. For the same sequence, the melting temperature in the series with HeLa Kyoto [2] (cell cycle stage: G1/S) is 53 °C; in the series on HeLa Kyoto [2] (cell cycle stage: mitosis), 53.2 °C. In addition, the “solubility change mitosis (log2)” value in the series on HeLa Kyoto [3] was found to be 0.0573. Besides, the thermal stability score is -1.57 in the series with HeLa Kyoto [4] (setting [5]) and -2.72 in the series with HeLa Kyoto [4] (cell cycle stage: mitosis).

“MLRFLAPRLLSLQGRTARYSSAAALPSPILNPDIPYNQLFINNEWQDAVSKKTFPTVNPTTGEVIGHVAEGDRADVDRAVKAAREAFRLGSPWRRMDASERGRLLNRLADLVERDRVYLASLETLDNGKPFQESYALDLDEVIKVYRYFAGWADKWHGKTIPMDGQHFCFTRHEPVGVCGQIIPWNFPLVMQGWKLAPALATGNTVVMKVAEQTPLSALYLASLIKEAGFPPGVVNIITGYGPTAGAAIAQHVDVDKVAFTGSTEVGHLIQKAAGDSNLKRVTLELGGKSPSIVLADADMEHAVEQCHEALFFNMGQCCCAGSRTFVEESIYNEFLERTVEKAKQRKVGNPFELDTQQGPQVDKEQFERVLGYIQLGQKEGAKLLCGGERFGERGFFIKPTVFGGVQDDMRIAKEEIFGPVQPLFKFKKIEEVVERANNTRYGLAAAVFTRDLDKAMYFTQALQAGTVWVNTYNIVTCHTPFGGFKESGNGRELGEDGLKAYTEVKTVTIKVPQKNS [ALDH1B1]”: the “solubility in G1/S (log2)” value with HeLa Kyoto [1] is 0.229. The melting temperature with HeLa Kyoto [2] (cell cycle stage: G1/S) is 52.6 °C; in the series on HeLa Kyoto [2] (cell cycle stage: mitosis), 52.8 °C. For the same sequence, the “solubility change mitosis (log2)” value with HeLa Kyoto [3] is -0.0523. Also, the thermal stability score with HeLa Kyoto [4] (setting [5]) was -1.97; in the series on HeLa Kyoto [4] (cell cycle stage: mitosis) it was -1.54.

Consider “MEALPLLAATTPDHGRHRRLLLLPLLLFLLPAGAVQGWETEERPRTREEECHFYAGGQVYPGEASRVSVADHSLHLSKAKISKPAPYWEGTAVIDGEFKELKLTDYRGKYLVFFFYPLDFTFVCPTEIIAFGDRLEEFRSINTEVVACSVDSQFTHLAWINTPRRQGGLGPIRIPLLSDLTHQISKDYGVYLEDSGHTLRGLFIIDDKGILRQITLNDLPVGRSVDETLRLVQAFQYTDKHGEVCPAGWKPGSETIIPDPAGKLKYFDKLN [PRDX4]”, for which, in the series on HeLa Kyoto [1], the “solubility in G1/S (log2)” value is -0.00958. The melting temperature in the series on HeLa Kyoto [2] (cell cycle stage: G1/S) worked out at 58.4 °C; with HeLa Kyoto [2] (cell cycle stage: mitosis), 62.8 °C. Also, the “solubility change mitosis (log2)” value with HeLa Kyoto [3] was -0.0673. The thermal stability score was -1.92 in the series with HeLa Kyoto [4] (setting [5]) and -4.08 with HeLa Kyoto [4] (cell cycle stage: mitosis).
